According to PMC6420783:

How the values were obtained:
NPM1 = NPM1 (UniProt P06748 1-294); assay: SPR
Ape1WT = Ape1WT (Homo sapiens, UniProt P27695 1-318); assay: SPR
Sequence of Ape1WT (P27695 whole entry): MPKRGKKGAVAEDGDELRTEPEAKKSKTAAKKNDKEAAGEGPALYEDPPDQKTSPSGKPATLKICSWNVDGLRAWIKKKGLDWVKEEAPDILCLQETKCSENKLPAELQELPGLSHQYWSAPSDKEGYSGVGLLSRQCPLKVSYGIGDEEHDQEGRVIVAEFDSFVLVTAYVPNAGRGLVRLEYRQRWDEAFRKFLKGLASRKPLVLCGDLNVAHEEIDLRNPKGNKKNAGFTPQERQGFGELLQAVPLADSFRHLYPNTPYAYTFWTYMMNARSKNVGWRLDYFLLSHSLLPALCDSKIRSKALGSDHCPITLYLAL

Sequence of NPM1 (P06748 whole entry): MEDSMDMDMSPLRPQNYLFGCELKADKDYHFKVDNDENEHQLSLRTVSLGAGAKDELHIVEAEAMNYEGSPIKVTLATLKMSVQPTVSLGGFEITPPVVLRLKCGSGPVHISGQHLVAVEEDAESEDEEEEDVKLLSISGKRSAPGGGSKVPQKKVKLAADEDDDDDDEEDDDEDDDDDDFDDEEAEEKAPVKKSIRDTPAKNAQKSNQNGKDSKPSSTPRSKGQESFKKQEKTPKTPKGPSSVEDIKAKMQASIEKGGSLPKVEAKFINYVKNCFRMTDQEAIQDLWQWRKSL

With TAGGGTTAGGGTTAGGGTTAGGG (structured_DNA) [Biot-Nat] the Kd (NPM1) was 147 nM and the Kd (Ape1WT) was 31.6 nM.

TTTTTTTTTTTTTTTTTTTTTTT (ssDNA) [Biot-Poly dT] showed a Kd (NPM1) of 255 nM and a Kd (Ape1WT) of 170 nM.
